Laboratory results: the supplement of paper PMC12667976

B1: library; numbered along this chain (parent)
chain: MATDAALRRLLRLHRTEIAVAVDSAFPLLHALADHDVVPEDKFQETLHLKEKEGCPQAFHALLSWLLTQDSTAILDFWRVLFKDYNLERYGRLQPILDSFPKDVDLSQPRKGRKPPAVPKALVPPPRLPTKRKASEEARAAAPAALTPRGTASPGSQLKAKPPKKPESSAEQQRLPLGNGIQTMSASVQRAVAMSSGDVPGARGAVEGILIQQVFESGGSKKCIQVGGEFYTPSKFEDSGSGKNKARSSSGPKPLVRAKGAQGAAPGGGEARLGQQGSVPAPLALPSDPQLHQKNEDECAVCRDGGELICCDGCPRAFHLACLSPPLREIPSGTWRCSSCLQATVQEVQPRAEEPRPQEPPVETPLPPGLRSAGEEVRGPPGEPLAGMDTTLVYKHLPAPPSAAPLPGLDSSALHPLLCVGPEGQQNLAPGARCGVCGDGTDVLRCTHCAAAFHWRCHFPAGTSRPGTGLRCRSCSGDVTPAPVEGVLAPSPARLAPGPAKDDTASHEPALHRDDLESLLSEHTFDGILQWAIQSMARPAAPFPS

Variants of: B1
Assay: AIRE transcriptional activation functional score (insulin promoter-GFP; nonsense median 0, synonymous median 1) (normalised score); higher = higher AIRE activity (more reporter activation)
Conditions: with insulin promoter-GFP reporter in HEK293
Protocol: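 Deep mutational scan of full-length human AIRE (codon-optimized cDNA, DT-POPCode NNN libraries over three regions) integrated at a Bxb1 landing pad in HEK293 cells carrying an insulin core promoter-GFP reporter at a Flp-In site. Cells were sorted for the top 10% GFP about 14 days after transfection. Variant frequency log-ratios (select vs non-select, TileSeq) were rescaled so that the nonsense median is 0 and the synonymous median is 1, then averaged over biological replicates.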

AIRE transcriptional activation functional score of substitutions, site by site:
A140: C 0.626, I 1.46, S 1.02, H 1.37, K 0.768, P 1.56, Q 0.908, G 1.12, M 0.337, R 1.14, L 1.13, D 1.07, F 1.71, Y 1.38, N 0.714, E 1.36, W 1.46, T 1.12, V 1.35
E137: M 2.33, T 0.166, A 1.36, C 0.524, F 1.36, L 0.822, N 0.174, W 1.59, Q -0.415, I 0.97, K 0.00389, H 0.409, Y 1.71, R 0.377, D 1.23, V 0.84, P 1.18, G 0.593, S 0.539
P148: N 0.598, A 0.746, Q 1.14, I 1.49, M 0.633, Y 1.97, H 0.972, W 0.0844, G 0.361, E 1.67, T 1.29, K -0.163, F 1.53, V 1.45, D 0.772, C 1.31, S 1.19, L 1.45, R 0.931
R132: Y 0.288
P143: R 0.548, L 1.11, G 0.958, F 1.28, N 1.32, E 1.5, C 0.956, H 1.09, A 1.18, S 0.96, D 1.01, W 1.15, K 0.307, M 1.02, T 1.49, I 0.862, V 0.964, Y 1.39, Q 1.33
E136: Q 1.45, H 1.15, G 0.816, I 0.792, C 1.22, W 1
